According to the supplement of paper PMC7877785:
± gives the uncertainty stated by the source.

Experiment: self-splicing fitness, log relative to wild type (ln ratio); higher = more splicing; Tetrahymena group I intron in knt gene, E. coli kanamycin selection, DiMSum; sequences stand for … in CUCUCU…GGAGGGAAAAGUUAUCAGGCAUGCACCUGGUAGCUAGUCUUUAAACCAAUAGAUUGCAUCGGUUUAAAAGGCAAGACCGUCAAAUUGCGGGAAAGGGGUCAACAGCCGUUCAGUACCAAGUCUCAGGGGAAACUUUGAGAUGGCCUUGCAAAGGGUAUGGUAAUAAGCUGACGGACAUGGUCCUAACCACGCAGCCAAGUCCUAAGUCAACAGAUCUUCUGUUGAUAUGGAUGCAGUUCACAGACUAAAUGUCGGUCGGGGAAGAUGUAUUCUUCUCAUAAGAUAUAGUCGGACCUCUCCUUAAUGGGAGCUAGCGGAUGAAGUGAUGCAACACUGGAGCCGCUGGGAACUAAUUUGUAUGCGAAAGUAUAUUGAUUAGUUUUGGAGUACUCGUGGUCG
Summary of the method: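 A randomised library covering all eight P1ex-region intron nucleotides was built with the intron in the knt kanamycin-resistance gene on pET-22b(+) and held in E. coli BL21(DE3). Cells were grown overnight at 37°C or 30°C on LB agar, with or without 25 μg/mL kanamycin, plus 100 μg/mL carbenicillin, 50 μM IPTG and 0.2% rhamnose, and pooled colonies were amplicon-sequenced on an Illumina HiSeq 2500. DiMSum fitness is the error-weighted combination of wild-type-normalised replicate fold changes, kanamycin versus none.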

Sequence	self-splicing fitness (ln) (30 °C)	self-splicing fitness (ln) (37 °C)
CGAAAGCAAUAUUACGGGUU	-3.58 ± 0.21	-2.74 ± 0.19
CGAAAGCAAUAUUACGGUAC	-2.51 ± 0.29	
CGAAAGCAAUAUUACGUACU	-0.756 ± 0.078	0.23 ± 0.098
CGAAAGCAAUAUUACGUCCG	-1.22 ± 0.088	-0.637 ± 0.12
CGAAAGCAAUAUUACGUCUU	-2.8 ± 0.13	-1.87 ± 0.16
CGAAAGCAAUAUUACGUGAU	-2.36 ± 0.11	-1.95 ± 0.14
CGAAAGCAAUAUUACGUGGA	-3.24 ± 0.13	-1.66 ± 0.096
CGAAAGCAAUAUUACGUUAU	-3.68 ± 0.31	-3.5 ± 0.29
CGACAGCAAUAUUACGAACU	-1.16 ± 0.13	-0.845 ± 0.15
CGACAGCAAUAUUACGAGUA	-3.58 ± 0.18	-1.52 ± 0.12
CGACAGCAAUAUUACGAUAU	-2.96 ± 0.14	-2.84 ± 0.12
CGACAGCAAUAUUACGCAAG	-1.28 ± 0.081	-0.83 ± 0.097
CGACAGCAAUAUUACGCAGU	-3.75 ± 0.22	-2.05 ± 0.23
CGACAGCAAUAUUACGCCCU	-1.46 ± 0.1	-0.191 ± 0.11
CGACAGCAAUAUUACGCCGU	-2.62 ± 0.35	-1.55 ± 0.33
CGACAGCAAUAUUACGCUAU	-3.71 ± 0.23	-2.04 ± 0.14
CGACAGCAAUAUUACGCUUA	-2.2 ± 0.14	-1.78 ± 0.12
CGACAGCAAUAUUACGCUUC		-3.09 ± 0.43
CGACAGCAAUAUUACGCUUG	-1.8 ± 0.098	-1.22 ± 0.12
CGACAGCAAUAUUACGGAAG	-2.1 ± 0.068	-1.24 ± 0.083
CGACAGCAAUAUUACGGACG	-2.24 ± 0.11	-1.33 ± 0.15
CGACAGCAAUAUUACGGCAU	-3.08 ± 0.21	-2.16 ± 0.25
CGACAGCAAUAUUACGGCGA	-1.65 ± 0.14	-0.523 ± 0.13
CGACAGCAAUAUUACGGCGC	-3.37 ± 0.24	-0.977 ± 0.15
CGACAGCAAUAUUACGGCGG	-0.174 ± 0.078	0.335 ± 0.11

Sequence	self-splicing fitness (ln) (30 °C)	self-splicing fitness (ln) (37 °C)
CGACAGCAAUAUUACGGCGU	-3.22 ± 0.088	-1.59 ± 0.074
CGACAGCAAUAUUACGGGCG	-1.71 ± 0.17	-1.81 ± 0.19
CGACAGCAAUAUUACGGGCU	-4.16 ± 0.2	-2.53 ± 0.15
CGACAGCAAUAUUACGGUAG	-1.47 ± 0.069	-0.946 ± 0.069
CGACAGCAAUAUUACGGUCA	-0.168 ± 0.083	0.276 ± 0.1
CGACAGCAAUAUUACGGUCG	-3.33 ± 0.14	-2.48 ± 0.15
CGACAGCAAUAUUACGUGUC	-3.39 ± 0.13	-2.01 ± 0.12
CGAGAGCAAUAUUACGACAU	-3.964 ± 0.034	-2.84 ± 0.046
CGAGAGCAAUAUUACGACUC	-2.03 ± 0.42	-0.968 ± 0.39
CGAGAGCAAUAUUACGAUAC	-3.49 ± 0.42	-1.05 ± 0.26
CGAGAGCAAUAUUACGAUCA	-2.63 ± 0.38	-1.75 ± 0.38
CGAGAGCAAUAUUACGAUCU	-2.45 ± 0.42	
CGAGAGCAAUAUUACGCUAA	-2.68 ± 0.33	
CGAGAGCAAUAUUACGGAUC	-3.76 ± 0.38	-1.51 ± 0.28
CGAGAGCAAUAUUACGGCAU	-3.2 ± 0.42	-2.15 ± 0.46
CGAGAGCAAUAUUACGGCCU	-2.61 ± 0.39	-2.63 ± 0.44
CGAGAGCAAUAUUACGGUAA	-1.51 ± 0.25	-2.55 ± 0.28
CGAGAGCAAUAUUACGGUUA	-3.13 ± 0.43	-2.79 ± 0.49
CGAGAGCAAUAUUACGUACU		-0.953 ± 0.3
CGAGAGCAAUAUUACGUAGU	-2.78 ± 0.3	-1.7 ± 0.27
CGAGAGCAAUAUUACGUAUG	-3.68 ± 0.29	-1.49 ± 0.21
CGAGAGCAAUAUUACGUCUA	-3.15 ± 0.36	
CGAGAGCAAUAUUACGUGAC	-2.77 ± 0.2	-2.01 ± 0.29
CGAGAGCAAUAUUACGUGGA	-3.7 ± 0.26	-2.89 ± 0.23
CGAGAGCAAUAUUACGUGUG	-2.97 ± 0.12	-2.5 ± 0.15
